Source: the supplement of paper PMC12764529
± gives the half width of the 95% confidence interval.

Columns and labels:
[1] = folding stability dG unfold from trypsin proteolysis; higher = more stable
Procedure, shortened: (§1)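 Unfolding free energy was derived, per protease or combined, against a sequence-predicted unfolded-state K50 and a shared folded-state K50, starting from K50 inferred by Bayesian fitting of sequencing counts. Digestion with trypsin and chymotrypsin was carried out on designed mini-proteins under 80 residues without cysteine in a PA-tagged cDNA display construct. Only designs with AlphaFold2 dimer inter-PAE above 15 were kept.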

[2] = folding stability dG unfold (combined trypsin and chymotrypsin); higher = more stable
Procedure, shortened: as §1

[3] = folding stability dG unfold from chymotrypsin proteolysis; higher = more stable
Procedure, shortened: as §1

Sequence | folding stability dG unfold [1] | folding stability dG unfold [2] | folding stability dG unfold [3]
SAGGSAGGPEIEVRFPDGWYVKITVERPEDGKVTVKVEVYHPDPNGKPIPPETAKNLAKEFLNKSAGGSAGG [r6_235_TrROS] | 0.945 ± 0.075 kcal/mol | 0.67 ± 0.11 kcal/mol | 0.294 ± 0.12 kcal/mol
SAGGSAGGPIKDSKGKFIVTFEFPNGLKKKFEVENIKNPEIEFNFNGKKVKTKIIEIKKGDESKSAGGSAGG [r6_575_TrMRF] | -0.117 ± 0.12 kcal/mol | 0.0149 ± 0.12 kcal/mol | -0.004 ± 0.21 kcal/mol
SAGGSAGGPIVIKVKSLEEAKELVEKLAKELTPENVKVEIKEVFEPENSYYVVIEIKTASPEEESAGGSAGG [r6_72_TrMRF] | 2.85 ± 0.14 kcal/mol | 2.65 ± 0.22 kcal/mol | 2.51 ± 0.097 kcal/mol
SAGGSAGGPIVLKFPSPEDLEKAIEIATAHGYEIELNPESGTLVINATGPMLEEFKKIPGLEISSAGGSAGG [r6_724_TrMRF] | 2.73 ± 0.12 kcal/mol | 2.72 ± 0.092 kcal/mol | 2.66 ± 0.041 kcal/mol
SAGGSAGGPKEKKWYVMVHITWRDDGKERPRHFMFKSPEQVIEALEEQLPPDNIEIDVAVFPYKSAGGSAGG [r6_114_TrROS] | 1.63 ± 0.034 kcal/mol | 2.33 ± 0.086 kcal/mol | 2.95 ± 0.053 kcal/mol
SAGGSAGGPKHVEIVITPDLRKEIEENQKEGDPPTLMEIAKEIAREFRANGMPVDIKILPPEDFSAGGSAGG [r6_815_TrROS] | 0.216 ± 0.07 kcal/mol | 0.452 ± 0.23 kcal/mol | 0.29 ± 0.31 kcal/mol
SAGGSAGGPLKVELVKAEILPGNKIIRVYRAELPTETYLAVIELHLNPDGEILSAKIKVYPLPESAGGSAGG [r6_19_TrMRF] | 2.85 ± 0.14 kcal/mol | 3.06 ± 0.14 kcal/mol | 3.06 ± 0.052 kcal/mol
SAGGSAGGPLPLEELRRLLESRPDYEILSVEDESPDYVVVTVRFPFPLPSDEERTLRLRLRFPLSAGGSAGG [r6_152_TrMRF] | 2.23 ± 0.056 kcal/mol | 3.08 ± 0.094 kcal/mol | 3.374 ± 0.031 kcal/mol
SAGGSAGGPLVVGRGTFPDGFTADAELRVPDSSETFYRTIEPGASLDEIPENYEVANITLSPAGSAGGSAGG [r6_758_TrMRF] | -0.289 ± 0.12 kcal/mol | -0.162 ± 0.13 kcal/mol | -0.176 ± 0.13 kcal/mol
SAGGSAGGPNIEIMSMFKHPNGTIVIFIRTPEGRYIVIKIPPPGNIKIVGVYPLPPGDPLLERLSAGGSAGG [r6_715_TrROS] | 2.43 ± 0.17 kcal/mol | 3.06 ± 0.2 kcal/mol | 3.14 ± 0.12 kcal/mol
SAGGSAGGPNWVKFPIMFEMPIPVVPKMEKDPDGENRMEPVKPVRISIMIELTLPPDDLEDLIKSAGGSAGG [r6_120_TrROS] | 1.41 ± 0.083 kcal/mol | 1.83 ± 0.18 kcal/mol | 2.28 ± 0.11 kcal/mol
SAGGSAGGPPPAKVVEVREVTLEDLENLDKLLVVFPDGKVYTSPEALRKWLEEGKPVLVAVFEGSAGGSAGG [r6_827_TrMRF] | 1.6 ± 0.084 kcal/mol | 1.88 ± 0.15 kcal/mol | 1.96 ± 0.049 kcal/mol
SAGGSAGGPPPYYMVEIEIERRNPKNGKKQKFPVTVIMPPKEAEKIKDELEEWGYEIKVDVHPISAGGSAGG [r6_97_TrROS] | 0.856 ± 0.15 kcal/mol | 0.74 ± 0.18 kcal/mol | 0.393 ± 0.066 kcal/mol
SAGGSAGGPVVISVPALVKLAKELGLKLVFFPETKTVILEHPDSFLIATIDSKGNVSIAPALPESAGGSAGG [r6_155_TrMRF] | 2.69 ± 0.09 kcal/mol | 2.64 ± 0.091 kcal/mol | 2.59 ± 0.049 kcal/mol
SAGGSAGGPYYIMVDIEMYNPQDGKERNFTLMIPVPPGDLPKIKEELLSAGFPIKIKNISIMPPSAGGSAGG [r6_151_TrROS] | 2.62 ± 0.14 kcal/mol | 2.74 ± 0.18 kcal/mol | 2.88 ± 0.062 kcal/mol
SAGGSAGGRIPLEDIEIVEVSEETLPNTEKVYHVLVKLPEGYIEATFLPNTGLEEAVERLLALESAGGSAGG [r6_232_TrMRF] | 0.963 ± 0.053 kcal/mol | 0.788 ± 0.067 kcal/mol | 0.493 ± 0.097 kcal/mol
SAGGSAGGRLEPITEEEALELARLLAEYIRRLFPGDPRPHLVVVPILVPTPEDGYRLFLAVIAESAGGSAGG [r6_844_TrMRF] | 2.74 ± 0.079 kcal/mol | 3.73 ± 0.067 kcal/mol | 4.1 ± 0.039 kcal/mol
SAGGSAGGRLLLVKITLPDGEEITIVLEFESEEEARAAAEALLPPGAKVEVRELSEEELEALLKSAGGSAGG [r6_267_TrROS_Hall] | 3.09 ± 0.049 kcal/mol | 3.31 ± 0.052 kcal/mol | 3.37 ± 0.044 kcal/mol

Sequence | folding stability dG unfold [1] | folding stability dG unfold [2] | folding stability dG unfold [3]
SAGGSAGGRVRIHYNPEDGYIMITFPRNNPEEIAKEILEAFNIKDVNIQVDPEEGWVSIMIKIDSAGGSAGG [r6_662_TrROS] | 2.95 ± 0.25 kcal/mol | 2.17 ± 0.41 kcal/mol | 1.26 ± 0.1 kcal/mol
SAGGSAGGSAAEASVVTFPGDLTAEVTKLPDGSYAVTVTFPENPGATATLTRTPDSVTVTPSAGGSAGGSAG [r3_170_JUSTAS] | 0.0476 ± 0.058 kcal/mol | -0.342 ± 0.17 kcal/mol | -1.1 ± 0.56 kcal/mol
SAGGSAGGSAAKIELEDGTLRITLTRTVRDPATGETHTETLTLEIKLPPAPPPVVVVSPEDLSAGGSAGGSA [r18_501_TrROS_Hall] | 2.32 ± 0.072 kcal/mol | 2.88 ± 0.092 kcal/mol | 3.24 ± 0.037 kcal/mol
SAGGSAGGSAAPDEKLKITVELVDPNNGKRIEEKEYPNMTIEEVKKEAEEKGLKIVKIEVSSAGGSAGGSAG [r3_423_JUSTAS] | -0.382 ± 0.083 kcal/mol | -0.173 ± 0.29 kcal/mol | -0.116 ± 0.061 kcal/mol
SAGGSAGGSAAPLYELEILSVDLDPDNPTVYVLARIPGTSNYVLITFPPNGDVYAYASPLPSAGGSAGGSAG [r3_294_TrMRF] | 1.95 ± 0.06 kcal/mol | 2.25 ± 0.17 kcal/mol | 2.37 ± 0.06 kcal/mol
SAGGSAGGSAAVPVSETPLGTLPDGRRVRLRRYRDPDGNLYTFLEVEPLPRPLSPADLEKAAASAGGSAGGS [r12_775_TrMRF] | 0.492 ± 0.19 kcal/mol | 1.68 ± 0.1 kcal/mol | 2.06 ± 0.12 kcal/mol
SAGGSAGGSADEIPIMIKIKYKNGGKKREHTITFRVEPNMPNLDEFAKELANNGRIEEVEISAGGSAGGSAG [r3_30_TrROS] | 0.629 ± 0.14 kcal/mol | 0.28 ± 0.25 kcal/mol | -0.282 ± 0.59 kcal/mol
SAGGSAGGSADEPETTTTTTTTTTTKKPAPPAPPKTITLDVEVNGKTLRLTFTSKEALDALSAGGSAGGSAG [r3_426_TrROS_Hall] | 0.931 ± 0.021 kcal/mol | 1.03 ± 0.15 kcal/mol | 0.945 ± 0.1 kcal/mol
SAGGSAGGSADGNTPVEVTITLTDPKTGAVTTVPVVLPTSVSVEEVAAELAAKFGLTTVTVTSAGGSAGGSA [r18_58_JUSTAS] | 1.06 ± 0.027 kcal/mol | 0.864 ± 0.037 kcal/mol | 0.521 ± 0.04 kcal/mol
SAGGSAGGSADKIEIRVKLKIPNTDEILTFPIWVDPENPEEVAKAIAAWLEKNGYEIESFEGSAGGSAGGSA [r18_3_TrMRF] | 3.53 ± 0.23 kcal/mol | 3.98 ± 0.16 kcal/mol | 4.14 ± 0.15 kcal/mol
SAGGSAGGSADKIPVKIKVKLKDGDKEYEVTVTVTLDVNDPNLDAFAKELASSGKIEEVEASAGGSAGGSAG [r3_30_TrMRF] | 0.877 ± 0.072 kcal/mol | 0.973 ± 0.19 kcal/mol | 1.03 ± 0.15 kcal/mol
SAGGSAGGSADNPDDKKKQKPKPEIKVKVEWVVIPNGFLIFEITIAGGITLTIIIPFPPNMFSAGGSAGGSA [r18_192_TrROS] | 2 ± 0.058 kcal/mol | 2.84 ± 0.16 kcal/mol | 3.09 ± 0.035 kcal/mol
SAGGSAGGSADPNAFPITIFTFKMEIEDVEKTPNGQPELRYKMEVVEIRPIWLPPDDLEDLSAGGSAGGSAG [r3_121_TrROS] | 3 ± 0.16 kcal/mol | 3.79 ± 0.15 kcal/mol | 4.39 ± 0.097 kcal/mol
SAGGSAGGSAEEEEMPVEELVRRKAREVEEAFPGLRGERRITVTVTLPEGETWTAELVLPLSAGGSAGGSAG [r3_64_TrMRF] | 0.19 ± 0.19 kcal/mol | 0.507 ± 0.13 kcal/mol | 0.502 ± 0.18 kcal/mol
SAGGSAGGSAEELVKYLAKEHGHPPGKEVTIPFDNWMIKIRYNNDGVPVGVEIKPMPPDDMSAGGSAGGSAG [r3_468_TrROS] | 0.717 ± 0.025 kcal/mol | 0.593 ± 0.098 kcal/mol | 0.288 ± 0.12 kcal/mol
SAGGSAGGSAEKTLTVVIKVKPNKTPEEIAKEIKKKLNLPNVEIVSIEYDKETNYITIKVKVSAGGSAGGSA [r18_481_TrROS_Hall] | 3.6 ± 0.086 kcal/mol | 3.47 ± 0.12 kcal/mol | 3.39 ± 0.056 kcal/mol
SAGGSAGGSAEPPEPEVVAVTVEITEEDGELTITVTNEDTGEKYTFTLKNVEVKPGDTLLIRSAGGSAGGSA [r18_89_TrROS_Hall] | 0.402 ± 0.26 kcal/mol | 1.21 ± 0.56 kcal/mol | 1.77 ± 0.34 kcal/mol
SAGGSAGGSAEYIVVNSDEQLKALKELGGVKEVERKENFVVVEFPDIPPELREKLLEVIKESAGGSAGGSAG [r3_398_TrMRF] | -0.0633 ± 0.15 kcal/mol | -0.366 ± 0.5 kcal/mol | -0.805 ± 0.94 kcal/mol
